Numbered stars: 1 amine (or outer) side, 2 acyl side, 3 side chain; on linkers, the order of the positions; unused ones are H or OH. Bridge positions count the residues as written; N and C are the ends. Square brackets hold non-standard residues; d marks the D form. Ends that are not written are not given here. 1Nal = N[C@@H](Cc1cccc2ccccc12)C(=O)O; TBMB = c1c(C[*:1])cc(C[*:3])cc1C[*:2]; hArg = N=C(N)NCCCC[C@H](N)C(=O)O; Tle = CC(C)(C)[C@H](N)C(=O)O; Aib = CC(C)(N)C(=O)O; Sar = CNCC(=O)O
Biological target: T1, Human EphA2 (Ecto) (Human, UniProt P29317 24-537)
T1 construct: extracellular domain
Test: FP competition; competitor Compound 66
Method: (§1) Peptides without a fluorescent tag were tested in competition with a peptide with a fluorescent tag and a known Kd (Table 2). Peptides were diluted to an appropriate concentration in assay buffer as described in the direct binding assay with a maximum of 5% DMSO, then serially diluted 1 in 2. Five μL of diluted peptide was added to the plate followed by 10 μL of human or mouse EphA2 (Table 1) at a fixed concentration which was dependent on the fluorescent peptide used (Table 2), then 10 μL fluorescent peptide added. Measurements were conducted as for the direct binding assay, however the gain was determined prior to the first measurement.

T1 sequence (P29317 24-537): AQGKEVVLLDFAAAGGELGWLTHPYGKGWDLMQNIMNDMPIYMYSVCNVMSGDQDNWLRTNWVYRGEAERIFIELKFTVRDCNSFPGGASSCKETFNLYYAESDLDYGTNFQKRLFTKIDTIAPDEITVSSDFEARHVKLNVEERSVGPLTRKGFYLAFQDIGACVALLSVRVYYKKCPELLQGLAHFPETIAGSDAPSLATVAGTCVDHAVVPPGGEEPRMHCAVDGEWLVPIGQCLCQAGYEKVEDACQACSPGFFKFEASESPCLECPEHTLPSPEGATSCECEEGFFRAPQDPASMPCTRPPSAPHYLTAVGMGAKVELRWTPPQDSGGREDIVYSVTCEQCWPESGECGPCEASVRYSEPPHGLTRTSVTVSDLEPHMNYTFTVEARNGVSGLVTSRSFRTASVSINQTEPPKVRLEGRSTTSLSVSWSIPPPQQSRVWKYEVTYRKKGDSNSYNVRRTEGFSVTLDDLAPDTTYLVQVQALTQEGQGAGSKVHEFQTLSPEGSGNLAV

Row | Binder | Ki [µM]
1 | [Sar][Sar]ACPWGPF[1Nal]CPV[dA]RPGC (linker 4-11-18 via TBMB) [Compound 117] | 0.075
2 | ACPWGPAWCPVRDTNCA (linker 2-9-16 via TBMB) [Compound 42] | 0.316
3 | [Sar][Sar]ACPWGPAWCPVNRPGC (linker 4-11-18 via TBMB) [Compound 83] | 0.288
4 | ACPWGPFWCPVARPGC (printed: Sar2-ACPWGPFWCPVARPGC; TBMB on the 3 Cys) [Compound 101] | 0.265
5 | [Sar][Sar]ACPWGPYWCPVNRPGC (linker 4-11-18 via TBMB) [Compound 91] | 0.138
6 | [Sar][Sar]ACPWGPFWCPVNRPAC (linker 4-11-18 via TBMB) [Compound 111] | 0.238
7 | [Sar][Sar]ACPWGPFWCPVNRAGC (linker 4-11-18 via TBMB) [Compound 104] | 0.194
8 | ACRVSPEYCPFGPVWCAGAAA (linker 2-9-16 via TBMB) [Compound 34] | 0.0774
9 | ACRVSPEYCPFGPVWCA (linker 2-9-16 via TBMB) [Compound 33] | 0.0785
10 | ACPWGPMWCPVNRPGCA (linker 2-9-16 via TBMB) [Compound 46] | 0.0958
11 | [Sar][Sar]ACPWGPFWCPVNR[dA]GC (linker 4-11-18 via TBMB) [Compound 105] | 0.471
12 | ACMNDWLCSLGWTCA (linker 2-8-14 via TBMB) [Compound 24] | 0.0823
13 | [Sar][Sar]ACPWGPFWCPVNR[Aib]GC (linker 4-11-18 via TBMB) [Compound 110] | 0.14

Continued, values first:

Row | Ki [µM] | Binder
14 | 0.028 | ARDDPCPWGPFWCPVNRPGCA (linker 6-13-20 via TBMB) [Compound 62]
15 | 0.0681 | [Sar][Sar]ACPWGPF[1Nal]CPVNRPGC (linker 4-11-18 via TBMB) [Compound 96]
16 | 0.00061 | [Sar][Sar]AC[Aib][1Nal]GPFWCPVNRP[dA]C (linker 4-11-18 via TBMB) [Compound 125]
17 | 0.016 | [Sar][Sar]ACP[1Nal]G[Aib]FWCPVNRP[dA]C (linker 4-11-18 via TBMB) [Compound 128]
18 | 0.046 | [Sar][Sar]ACPWG[Aib]F[1Nal]CPVNRPGC (linker 4-11-18 via TBMB) [Compound 123]
19 | 0.019 | [Sar][Sar]ACP[1Nal]G[Aib]FWCP[Tle]NRPGC (linker 4-11-18 via TBMB) [Compound 126]
20 | 0.033 | [Sar][Sar]ACP[1Nal]G[Aib]FWCPV[dA]RPGC (linker 4-11-18 via TBMB) [Compound 127]
21 | 0.0066 | [Sar][Sar]AC[Aib][1Nal]GPFWCPVNRPGC (linker 4-11-18 via TBMB) [Compound 113]
22 | 0.0612 | ACRVSPEYCPFGPEWCA (linker 2-9-16 via TBMB) [Compound 37]
23 | 0.0405 | ACRVSPEYCPFGPSWCA (linker 2-9-16 via TBMB) [Compound 36]
24 | 0.0265 | ACRVSPEYCPFGPYWCA (linker 2-9-16 via TBMB) [Compound 38]
25 | 0.002 | [Sar][Sar]ACP[1Nal]GPFWCP[Tle]NRPGC (linker 4-11-18 via TBMB) [Compound 121]
26 | 0.0068 | [Sar][Sar]ACP[1Nal]GPFWCP[Tle]NR[Aib]GC (linker 4-11-18 via TBMB) [Compound 131]
27 | 0.0701 | ACPWGPFWCPVNRPGCA (linker 2-9-16 via TBMB) [Compound 69]
28 | 0.00164 | [Sar][Sar]ACP[1Nal]GPFWCPV[dA]RPGC (linker 4-11-18 via TBMB) [Compound 115]
29 | 0.00098 | [Sar][Sar]ACP[1Nal]GPF[1Nal]CPVNRPGC (linker 4-11-18 via TBMB) [Compound 120]
30 | 0.015 | [Sar][Sar]ACP[1Nal]GPFWCP[Tle][dA]RPGC (linker 4-11-18 via TBMB) [Compound 129]
31 | 0.0032 | [Sar][Sar]ACP[1Nal]GPFWCPVNRP[dA]C (linker 4-11-18 via TBMB) [Compound 116]
32 | 0.056 | ACMNDWLCQLGWTCA (linker 2-8-14 via TBMB) [Compound 30]
33 | 0.008 | [Sar][Sar]ACP[1Nal]GPFWCPVN[hArg]PGC (linker 4-11-18 via TBMB) [Compound 122]

Biological target: T1, Human EphA2 (Ecto)
Test: FP competition; competitor Compound 18
Method: as §1

Row | Binder | Ki [µM]
34 | AHDVPCPWGPFWCPVNRPGCA (linker 6-13-20 via TBMB) [Compound 59] | 0.00054
35 | [Sar][Sar]ACPWGPF[1Nal]CPV[dA]RPGC (linker 4-11-18 via TBMB) [Compound 117] | 0.053
36 | AGEMACPWGPFWCPVNRPGCA (linker 6-13-20 via TBMB) [Compound 53] | 0.0123
37 | [Sar][Sar]ACPWGPAWCPVNRPGC (linker 4-11-18 via TBMB) [Compound 83] | 0.199
38 | ACPWGPFWCPVARPGC (printed: Sar2-ACPWGPFWCPVARPGC; TBMB on the 3 Cys) [Compound 101] | 0.293
39 | [Sar][Sar]ACPWGPFWCPVNRPAC (linker 4-11-18 via TBMB) [Compound 111] | 0.108
40 | [Sar][Sar]ACPWGPFWCPVNRAGC (linker 4-11-18 via TBMB) [Compound 104] | 0.124
41 | Ac-[Sar][Sar]A[dD]DVTCP[1Nal]G[Aib]FWCP[Tle]N[hArg]PGC (linker 8-15-22 via TBMB) [Compound 284] | 0.0038
42 | [Sar][Sar]ACPWGPFWCPVNR[Aib]GC (linker 4-11-18 via TBMB) [Compound 110] | 0.075

Second part, the binder after the results:

Row | Ki [µM] | Binder
43 | 0.0313 | [Sar][Sar]ACPWGPF[1Nal]CPVNRPGC (linker 4-11-18 via TBMB) [Compound 96]
44 | 0.0064 | [Sar][Sar]AC[Aib][1Nal]GPFWCPVNRP[dA]C (linker 4-11-18 via TBMB) [Compound 125]
45 | 0.015 | [Sar][Sar]ACP[1Nal]G[Aib]FWCPVNRP[dA]C (linker 4-11-18 via TBMB) [Compound 128]
46 | 0.063 | [Sar][Sar]ACPWG[Aib]F[1Nal]CPVNRPGC (linker 4-11-18 via TBMB) [Compound 123]
47 | 0.015 | [Sar][Sar]ACP[1Nal]G[Aib]FWCP[Tle]NRPGC (linker 4-11-18 via TBMB) [Compound 126]
48 | 0.04 | [Sar][Sar]ACP[1Nal]G[Aib]FWCPV[dA]RPGC (linker 4-11-18 via TBMB) [Compound 127]
49 | 0.01 | [Sar][Sar]AC[Aib][1Nal]GPFWCPVNRPGC (linker 4-11-18 via TBMB) [Compound 113]
50 | 0.00365 | [Sar][Sar]ACP[1Nal]GPFWCP[Tle]NRPGC (linker 4-11-18 via TBMB) [Compound 121]
51 | 0.011 | [Sar][Sar]ACP[1Nal]GPFWCP[Tle]NR[Aib]GC (linker 4-11-18 via TBMB) [Compound 131]
52 | 0.107 | ACPWGPFWCPVNRPGCA (linker 2-9-16 via TBMB) [Compound 69]
53 | 0.0125 | [Sar][Sar]ACP[1Nal]GPFWCPV[dA]RPGC (linker 4-11-18 via TBMB) [Compound 115]
54 | 0.0014 | [Sar][Sar]ACP[1Nal]GPF[1Nal]CPVNRPGC (linker 4-11-18 via TBMB) [Compound 120]
55 | 0.023 | [Sar][Sar]ACP[1Nal]GPFWCP[Tle][dA]RPGC (linker 4-11-18 via TBMB) [Compound 129]
56 | 0.00295 | [Sar][Sar]ACP[1Nal]GPFWCPVNRP[dA]C (linker 4-11-18 via TBMB) [Compound 116]
57 | 0.00955 | [Sar][Sar]ACP[1Nal]GPFWCPVN[hArg]PGC (linker 4-11-18 via TBMB) [Compound 122]
